For this assay, the target named is OVA323-339 in the context of MHC class II (I-A^b) (mouse; chicken) (UniProt P14434). The experiment in a line: cell-based or functional assay.

Regarding “T cell receptor of OT-II transgenic CD4+ T cells (TCR)”, the proliferation of CFSE-labeled OT-II cells transferred into the footpad one week after immunization with OVA-KFE8D nanofibers (shift in CFSE intensity) (% of transferred cells) stood at 60 and the proliferation of adoptively transferred CFSE-labeled OT-II cells in mice immunized with OVA-Q11 or OVA in CFA (shift in CFSE intensity) (% of transferred cells) amounted to 95.

These data come from patent US20160074509A1.
